According to patent US20040009486A1, “Compositions and methods utilizing DNA polymerases” (priority 1999, published 2004):

Assays:
[1] = cited from earlier work
[2] = Gardner and Jack, 1999; cited from earlier work
[3] = test system: primer:template; assay: Fidelity screen with rhodamine labeled non-complementary ddNTP; type: biochemical; conditions: R110-labeled incorrect ddNTP
Protocol: Reactions (10 μl) contained 1 unit of enzyme in 1× reaction buffer, 15 nM primer template, 25 nM of unlabeled complementary ddNTP, and 25, 100, 500, or 1000 nM of rhodamine labeled non-complementary ddNTP in four separate reactions. The reactions were incubated in a Perkin-Elmer 9600 for 25 cycles as follows: 96° C. for 10 s, 50° C. for 5 s, and 60° C. for 30 s. The reactions were then quenched with ice-cold 0.2 M EDTA (final concentration) and the products were purified from unincorporated rhodamine labeled ddNTPs and analyzed as described above.
Fidelity was determined as the tendency of a DNA polymerase to incorporate the correct nucleotide in the presence of increasing amounts of a non-complementary nucleotide. These assays employed constant amounts of primer:template, an unlabeled complementary ddNTP and DNA polymerase, and various concentrations of a rhodamine-labeled non-complementary ddNTP, as described in the Experimental Protocol. The amount of misextended primers is plotted against the ratio of rhodamine-labeled incorrect ddNTP/unlabeled correct ddNTP (FIG. 18 panels A and B). We performed similar assays for all possible mispairs (Table IX).
To address these concerns, the insertion fidelity of the JDF-3 P410L/A485T and Taq F667Y mutants was compared. In the first set of fidelity assays, a constant amount of primer:template, an unlabeled complementary ddNTP, and increasing concentrations of R110-labeled non-complementary ddNTP was used (Materials and Methods). […] The amount of misextended primers was determined and plotted against the ratio of R110-labeled incorrect ddNTP/unlabeled correct ddNTP (FIG. 27, panels A and B). Similar assays for all 12 possible mispairs was performed (ddG:dT, ddT:dG, ddT:dC, ddC:dT, ddC:dA, ddA:dC, ddA:dG, ddG:dA, ddT:dT, ddC:dC, ddA:dA, ddG:dG). […] The other mispairs are formed less frequently, and at similar rates for the JDF-3 P410L/A485T and Taq F667Y mutants (data not shown).
Fidelity assays using labeled ddNTPs (10 μl) contained 1 unit DNA polymerase in 1× reaction buffer, 15 nM primer: template, 25 nM of unlabeled complementary ddNTP, and 25, 100, 500, or 1000 nM of rhodamine-labeled non-complementary ddNTP in four separate reactions. The reactions were incubated in a Perkin-Elmer 9600 for 25 cycles as follows: 96° C. for 10 s, 50° C. for 5 s, and 60° C. for 30 s. The reactions were quenched and analyzed as above.

[4] = Polymerase constant for dNTP (Table IV); type: biochemical; conditions: head names no parameter
Description: (§1) Recombinant JDF-3 DNA polymerase was purified as described below (see “Purification of JDF-3” (method 1)). The biochemical properties of JDF-3 DNA polymerase have been compared to those of other commercially available archaeal DNA polymerases. […] JDF-3 DNA polymerase was therefore chosen for development of a DNA sequencing enzyme.

[5] = test system: Primed M13; assay: Polymerase specific activity on primed M13 (Table IV); type: biochemical
Description: as §1

[6] = 3′ to 5′ exonuclease activity, Kong et al. method, bacterial lysates; type: biochemical
Protocol: To analyze JDF-3 mutant proteins, the DNA sequence encoding JDF-3 DNA polymerase was PCR amplified using primers GGGAAACATATGATCCTTGACGTTGATTAC (where NdeI site in bold and start codon underlined) and GGGAAAGGATCCTCACTTCTTCTTCCCCTTC (where BamHI site shown in bold type). The PCR products were digested, purified, and ligated into a high expression level vector using standard methods. Plasmid clones were transformed into BL21(DE3). Recombinant bacterial clones were grown using standard procedures and JDF-3 polymerase mutants were expressed in the absence of induction. The exonuclease and polymerase activities of recombinant clones were assayed using bacterial lysates. Typically, crude extracts were heated at 70° C. for 15-30 minutes and then centrifuged to obtain a cleared lysate.
There are several methods of measuring 3′ to 5′ exonuclease activity known in the art, including that of Kong et al. (Kong et al., 1993, J. Biol. Chem. 268: 1965) and that of Southworth et al. (Southworth et al., 1996, Proc. Natl. Acad. Sci. U.S.A. 93: 5281), the full contents of both of which are hereby incorporated by reference. The exonuclease activity of wild type and active mutant polymerases as measured by the Kong et al. method were as follows: […]

[7] = test system: DNA; assay: Polymerase constant for DNA (Table IV); type: biochemical; conditions: head names no parameter
Description: as §1

[8] = test system: Activated DNA; assay: Polymerase specific activity on activated DNA (Table IV); type: biochemical
Protocol: as §1
DNA polymerase activity was measured using purified JDF-3 polymerase mutants or heat-treated bacterial extracts prepared from various mutant clones. DNA polymerase activity was measured by monitoring the incorporation of ^3H-TTP into activated calf thymus DNA. A typical DNA polymerase reaction cocktail contained:
Incorporation was measured by adding 1 μl of polymerase samples to 10 μl aliquots of polymerase cocktail. DNA polymerase samples were diluted in a suitable storage buffer (e.g., 25 mM Tris-HCl (pH 7.5), 100 mM KCl, 0.1 mM EDTA, 1 mM DTT, 0.1% (v/v) Tween 20, 0.1% (v/v) Igepal 630, 10 μg/ml BSA, and 50% (v/v) glycerol). Polymerization reactions were conducted for 30 minutes at 72° C. Extension reactions were quenched on ice, and then 5 μl aliquots were spotted immediately onto DE81 ion-exchange filters (2.3 cm; Whatman #3658323). Unincorporated [^3H]TTP was removed by 6 washes with 2×SCC (0.3M NaCl, 30 mM sodium citrate, pH 7.0), followed by a brief wash with 100% ethanol. Incorporated radioactivity was measured by scintillation counting. […]

[9] = Reha-Krantz et al., 1993; cited from earlier work

Y412F: VENT DNA polymerase site-directed mutant Y412F (Gardner and Jack, 1999)
analog incorporation ([1]; Gardner and Jack, 1999): no change in analog incorporation

Y412V: VENT DNA polymerase site-directed mutant Y412V (Gardner and Jack, 1999)
increase in incorporation of ribonucleotide ATP [2]: 200 fold
dideoxynucleotide incorporation relative to unmutated / wild type enzyme ([1]; literature values): 2 fold

AmpliTaq FS: Taq F667Y mutant DNA polymerase (ABI / Perkin Elmer)
ddG:dT mispair formation frequency, higher than JDF-3 P410L/A485T [3]: 20 fold
ddT:dC mispair formation frequency, higher than JDF-3 P410L/A485T [3]: 3 fold

B1: JDF-3: Recombinant wild-type Thermococcus species JDF-3 Family B DNA polymerase (SEQ ID NO: 2) (protein)
chain: MILDVDYITENGKPVIRVFKKENGEFRIEYDREFEPYFYALLRDDSAIEEIKKITAERHGRVVKVKRAEKVKKKFLGRSVEVWVLYFTHPQDVPAIRDKIRKHPAVIDIYEYDIPFAKRYLIDKGLIPMEGEEELKLMSFDIETLYHEGEEFGTGPILMISYADESEARVITWKKIDLPYVEVVSTEKEMIKRFLRVVKEKDPDVLITYNGDNFDFAYLKKRCEKLGVSFTLGRDGSEPKIQRMGDRFAVEVKGRVHFDLYPVIRRTINLPTYTLEAVYEAVFGKPKEKVYAEEIATAWETGEGLERVARYSMEDARVTYELGREFFPMEAQLSRLIGQGLWDVSRSSTGNLVEWFLLRKAYERNELAPNKPDERELARRRGGYAGGYVKEPERGLWDNIVYLDFRSLYPSIIITHNVSPDTLNREGCRSYDVAPEVGHKFCKDFPGFIPSLLGNLLEERQKIKRKMKATLDPLEKNLLDYRQRAIKILANSYYGYYGYARARWYCRECAESVTAWGREYIEMVIRELEEKFGFKVLYADTDGLHATIPGADAETVKKKAMEFLNYINPKLPGLLELEYEGFYVRGFFVTKKKYAVIDEEGKITTRGLEIVRRDWSEIAKETQARVLEAILRHGDVEEAVRIVREVTEKLSKYEVPPEKLVIHEQITRELKDYKATGPHVAIAKRLAARGVKIRPGTVISYIVLKGSGRIGDRAIPFDEFDPTKHKYDADYYIENQVLPAVERILRAFGYRKEDLRYQKTRQVGLGAWLKPKGKKK
modifications: Thermococcus sp. JDF-3
dNTP (μM each) [4]: 16 ± 2 μM each
Specific Activity (U/mg) × 10^4 Primed M13 [5]: 5.2 (U/mg) × 10^4
Exo activity (U/mg) [6]: 915 U/mg
DNA [7]: 2.0 nM
Specific Activity (U/mg) × 10^4 Activated DNA [8]: 1.2 ± .07 (U/mg) × 10^4

B2: L412M: L412M bacteriophage T4 DNA polymerase mutant (Reha-Krantz et al., 1993) (protein, UniProt P04415 1-898, looked up, variant L412M)
DNA-directed DNA polymerase: MKEFYISIETVGNNIVERYIDENGKERTREVEYLPTMFRHCKEESKYKDIYGKNCAPQKFPSMKDARDWMKRMEDIGLEALGMNDFKLAYISDTYGSEIVYDRKFVRVANCDIEVTGDKFPDPMKAEYEIDAITHYDSIDDRFYVFDLLNSMYGSVSKWDAKLAAKLDCEGGDEVPQEILDRVIYMPFDNERDMLMEYINLWEQKRPAIFTGWNIEGFDVPYIMNRVKMILGERSMKRFSPIGRVKSKLIQNMYGSKEIYSIDGVSILDYLDLYKKFAFTNLPSFSLESVAQHETKKGKLPYDGPINKLRETNHQRYISYNIIDVESVQAIDKIRGFIDLVLSMSYYAKMPFSGVMSPIKTWDAIIFNSLKGEHKVIPQQGSHVKQSFPGAFVFEPKPIARRYIMSFDLTSMYPSIIRQVNISPETIRGQFKVHPIHEYIAGTAPKPSDEYSCSPNGWMYDKHQEGIIPKEIAKVFFQRKDWKKKMFAEEMNAEAIKKIIMKGAGSCSTKPEVERYVKFSDDFLNELSNYTESVLNSLIEECEKAATLANTNQLNRKILINSLYGALGNIHFRYYDLRNATAITIFGQVGIQWIARKINEYLNKVCGTNDEDFIAAGDTDSVYVCVDKVIEKVGLDRFKEQNDLVEFMNQFGKKKMEPMIDVAYRELCDYMNNREHLMHMDREAISCPPLGSKGVGGFWKAKKRYALNVYDMEDKRFAEPHLKIMGMETQQSSTPKAVQEALEESIRRILQEGEESVQEYYKNFEKEYRQLDYKVIAEVKTANDIAKYDDKGWPGFKCPFHIRGVLTYRRAVSGLGVAPILDGNKVMVLPLREGNPFGDKCIAWPSGTELPKEIRSDVLSWIDHSTLFQKSFVKPLAGMCESAGMDYEEKASLDFLFG
ddGTP needed for inhibition, less than wild-type polymerase [9]: 50 fold

B3: Pfu: Family B DNA polymerase from Pyrococcus furiosus (protein, UniProt P61875 1-775, looked up)
DNA polymerase: MILDVDYITEEGKPVIRLFKKENGKFKIEHDRTFRPYIYALLRDDSKIEEVKKITGERHGKIVRIVDVEKVEKKFLGKPITVWKLYLEHPQDVPTIREKVREHPAVVDIFEYDIPFAKRYLIDKGLIPMEGEEELKILAFDIETLYHEGEEFGKGPIIMISYADENEAKVITWKNIDLPYVEVVSSEREMIKRFLRIIREKDPDIIVTYNGDSFDFPYLAKRAEKLGIKLTIGRDGSEPKMQRIGDMTAVEVKGRIHFDLYHVITRTINLPTYTLEAVYEAIFGKPKEKVYADEIAKAWESGENLERVAKYSMEDAKATYELGKEFLPMEIQLSRLVGQPLWDVSRSSTGNLVEWFLLRKAYERNEVAPNKPSEEEYQRRLRESYTGGFVKEPEKGLWENIVYLDFRALYPSIIITHNVSPDTLNLEGCKNYDIAPQVGHKFCKDIPGFIPSLLGHLLEERQKIKTKMKETQDPIEKILLDYRQKAIKLLANSFYGYYGYAKARWYCKECAESVTAWGRKYIELVWKELEEKFGFKVLYIDTDGLYATIPGGESEEIKKKALEFVKYINSKLPGLLELEYEGFYKRGFFVTKKRYAVIDEEGKVITRGLEIVRRDWSEIAKETQARVLETILKHGDVEEAVRIVKEVIQKLANYEIPPEKLAIYEQITRPLHEYKAIGPHVAVAKKLAAKGVKIKPGMVIGYIVLRGDGPISNRAILAEEYDPKKHKYDAEYYIENQVLPAVLRILEGFGYRKEDLRYQKTRQVGLTSWLNIKKS
dNTP (μM each) [4]: 16 ± 2 μM each
Specific Activity (U/mg) × 10^4 Primed M13 [5]: 2.0 ± .02 (U/mg) × 10^4
DNA [7]: 0.7 nM
